Experimental data as given in patent publication US7901879B2, “Lactoferrin in the treatment of malignant neoplasms and other hyperproliferative diseases” (Agennix Incorporated, priority 2002, dated 2011).

Tested on: IL-18
Test: IL-18 levels in small intestine and serum after oral rhLF or bLF (cytokine ELISA)
Type: in vivo, mice
Procedure: Recombinant human lactoferrin and bovine lactoferrin were orally administered to mice, and the production of IL-18 in the small intestine was measured.
Mice were treated for three days daily with 65 mg/kg/day of rhLF, 300 mg/kg/day of rhLF or 300 mg/kg/day of bLF. For a control, mice were only administered the pharmaceutical carrier. Twenty-four hours following administration of the LF or control for 3 days, animals were weighed and blood and serum were collected. Serum was used for cytokine ELISA assays.
Also, at these time points, animals were sacrificed and the small intestinal tissue was removed for further analysis. Small intestinal epithelium was homogenized using a lysis buffer consisting of PBS, 1% Nonidet P-40, 0.5% sodium deoxycholate, and 0.1% sodium dodecyl sulphate containing 10 μg/ml PhenylMetheylsulfonyl fluoride. Homogenate was centrifuged at 15,000 rpm for 10 minutes and the supernatant stored at −80 C. till it was tested for IL-18 levels.

[1] = oral 300 mg/kg/day for three days, 24 h after last dose
[2] = oral, rhLF at both doses, bLF 300 mg/kg/day

B1: bovine lactoferrin (protein, UniProt P24627 20-708, looked up)
Lactotransferrin: APRKNVRWCTISQPEWFKCRRWQWRMKKLGAPSITCVRRAFALECIRAIAEKKADAVTLDGGMVFEAGRDPYKLRPVAAEIYGTKESPQTHYYAVAVVKKGSNFQLDQLQGRKSCHTGLGRSAGWIIPMGILRPYLSWTESLEPLQGAVAKFFSASCVPCIDRQAYPNLCQLCKGEGENQCACSSREPYFGYSGAFKCLQDGAGDVAFVKETTVFENLPEKADRDQYELLCLNNSRAPVDAFKECHLAQVPSHAVVARSVDGKEDLIWKLLSKAQEKFGKNKSRSFQLFGSPPGQRDLLFKDSALGFLRIPSKVDSALYLGSRYLTTLKNLRETAEEVKARYTRVVWCAVGPEEQKKCQQWSQQSGQNVTCATASTTDDCIVLVLKGEADALNLDGGYIYTAGKCGLVPVLAENRKSSKHSSLDCVLRPTEGYLAVAVVKKANEGLTWNSLKDKKSCHTAVDRTAGWNIPMGLIVNQTGSCAFDEFFSQSCAPGADPKSRLCALCAGDDQGLDKCVPNSKEKYYGYTGAFRCLAEDVGDVAFVKNDTVWENTNGESTADWAKNLNREDFRLLCLDGTRKPVTEAQSCHLAVAPNHAVVSRSDRAAHVKQVLLHQQALFGKNGKNCPDKFCLFKSETKNLLFNDNTECLAKLGGRPTYEEYLGTEYVTAIANLKKCSTSPLLEACAFLTR
IL-18 Intestinal Extract % Increase Over Control (oral 300 mg/kg): 373% | IL-18 Serum % Increase Over Control (oral 300 mg/kg): −5% | IL-18 Intestinal Extract [1]: 4,515 pg | IL-18 Serum [1]: 134 pg | effect on amount of IL-18 in the intestinal extract [2]: lesser increase | effect on amount of IL-18 in the serum [2]: did not increase
